Measured values as given in FireProtDB (doi:10.1021/bi049320b).

B1: Barstar, P11540 (parent)
chain: MKKAVINGEQIRSISDLHQTLKKELALPEYYGENLDALWDCLTGWVEYPLVLEWRQFEQSKQLTENGAESVLQVFREAKAEGCDITIILS

Variants of: B1
Details: Bacillus amyloliquefaciens, pH 8, 25 °C, Urea, Fluorescence, Tris-HCl 30 mM, structure 1BTA, whole UniProt chain shown

Variant	ddG of mutation (higher = less stable) (KCl 0.5 M) [kcal/mol]	denaturant m value (KCl 0.5 M) [kcal/mol/M]	unfolding free energy (KCl 0.5 M) [kcal/mol]	ddG of mutation (higher = less stable) (KCl 1 M) [kcal/mol]	denaturant m value (KCl 1 M) [kcal/mol/M]	unfolding free energy (KCl 1 M) [kcal/mol]	ddG of mutation (higher = less stable) [kcal/mol]	denaturant m value [kcal/mol/M]	unfolding free energy [kcal/mol]	ddG of mutation (higher = less stable) (KCl 1.0 M) [kcal/mol]	denaturant m value (KCl 1.0 M) [kcal/mol/M]	unfolding free energy (KCl 1.0 M) [kcal/mol]	ddG of mutation (higher = less stable) (KCl 0.5M) [kcal/mol]	denaturant m value (KCl 0.5M) [kcal/mol/M]	unfolding free energy (KCl 0.5M) [kcal/mol]
MKKAVINGEQIRSISDLHQTLQKELALPEYYGENLDALWDCLTGWVEYPLVLEWRQFEQSKQLTENGAESVLQVFREAKAEGCDITIILS	1.2	1.18	4.6	1.2	1.12	5.7	0.7	1.32	4.1	–	–	–	–	–	–
MKKAVINGEQIRSISDLHQTLAKELALPEYYGENLDALWDCLTGWVEYPLVLEWRQFEQSKQLTENGAESVLQVFREAKAEGCDITIILS	0.8	1.1	5	0.8	1.11	6.1	1.4	1.02	3.4	–	–	–	–	–	–
MKKAVINGEQIRSISDLHQTLKKELALPEYYGENLDALWDCLTGWVEYPLVLEWRQFEQSEQLTENGAESVLQVFREAKAEGCDITIILS	1.3	1.19	4.5	–	–	–	0.6	1.44	4.2	1.4	1.13	5.5	–	–	–
MKKAVINGEQIRSISDLHQTLKKELALPEYYGENLDALWDCLTGWVEYPLVLEWRQFEQSLQLTENGAESVLQVFREAKAEGCDITIILS	-0.4	1.17	6.2	–	–	–	-1	1.3	5.8	-0.4	1.16	7.3	–	–	–
MKKAVINGEQIRSISDLHQTLKKELALPEYYGENLDALWDCLTGWVEYPLVLEWRQFEQSKQLTENGAESVLQVFREAAAEGCDITIILS	-0.2	1.18	6	-0.1	1.16	7	–	–	–	–	–	–	–	–	–
MKKAVINGEQIRSISDLHQTLKKELALPEYYGENLDALWDCLTGWVEYPLVLEWRQFEQSKQLTENGAESVLQVFREAQAEGCDITIILS	-0.3	1.14	6.1	-0.3	1.14	7.2	-0.4	1.14	5.2	–	–	–	–	–	–
MKKAVINGEQIRSISDLHQTLKQELALPEYYGENLDALWDCLTGWVEYPLVLEWRQFEQSKQLTENGAESVLQVFREAKAEGCDITIILS	1.1	1.12	4.7	–	–	–	0.5	1.22	4.3	1.1	1.14	5.8	–	–	–
MKKAVINGEQIRSISDLHQTLKKELALPEYYGENLDALWDCLTGWVEYPLVLEWRQFKQSKQLTENGAESVLQVFREAKAEGCDITIILS	0.9	1.14	4.9	–	–	–	0.4	1.25	4.4	0.9	1.16	6	–	–	–
MKKAVINGEQIRSISDLHQTLKKELALPEYYGENLDALWDCLTGWVEYPLVLEWRQFEQSKQLTENGAESVLQVFQEAKAEGCDITIILS	–	–	–	0.4	1.17	6.5	–	–	–	–	–	–	0.4	1.15	5.4
MKKAVINGEQIRSISDLHQTLKKELALPEYYGENLDALWDCLTGWVEYPLVLEWRQFEQSKQLTENGAESVLQVFLEAKAEGCDITIILS	-0.7	1.13	6.5	–	–	–	-0.7	1.13	5.5	-0.7	1.15	7.6	–	–	–
